The text below walks through data of publication PMC7169973 (ACS chemical biology, 2020).

Like-named read-outs stand apart in the source and are kept apart here. Where no end group is shown, it is not given here. [ ]: non-standard residue; d: D form. fluorescein = fluorescein label on the N-terminus; pT = C[C@@H](OP(=O)(O)O)[C@H](N)C(=O)O; pS = N[C@@H](COP(=O)(O)O)C(=O)O; FAM = fluorescein

Assay [1] addresses T1, 14-3-3σ, full-length, recombinant (human, UniProt P31947 1-248).
T1 sequence (looked up): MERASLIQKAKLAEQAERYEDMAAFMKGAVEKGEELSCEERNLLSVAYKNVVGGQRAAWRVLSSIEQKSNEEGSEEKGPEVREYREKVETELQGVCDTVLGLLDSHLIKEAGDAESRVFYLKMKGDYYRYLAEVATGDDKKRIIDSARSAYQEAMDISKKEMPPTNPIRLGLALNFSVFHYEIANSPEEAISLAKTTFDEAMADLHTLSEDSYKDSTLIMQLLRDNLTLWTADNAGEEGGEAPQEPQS
Kind of assay: fluorescence polarisation.

Assay [2] has as its target T1, 14-3-3σ, full-length, recombinant. Kind of assay: fluorescence polarisation. This is another data set of the same source.
In assay [3] the target is fluorescein-labeled Nup160-ctp (3) (human). Briefly: fluorescence polarisation.
Assay [4] concerns the target fluorescein-labeled TNFRSF19-ctp (4) (human). Kind of assay: fluorescence polarisation.
Assay [5] deals with fluorescein-labeled Nup160-ctp (3) (human). Briefly: fluorescence polarisation. This is another data set of the same source. In general terms: Polarisation of emitted light reports the rotation of a fluorescent probe.
Assay [6] concerns the target fluorescein-labeled TNFRSF19-ctp (4) (human). Briefly: fluorescence polarisation. The source holds these as a separate data set.
Assay [7] deals with T1, 14-3-3σ, full-length, recombinant. Kind of assay: ITC. For orientation: ITC needs no label: the signal is the heat of the interaction.
For assay [8] the target is unchanged. Kind of assay: ITC. This is another data set of the same source.
Assay [9] has the same target. Briefly: fluorescence polarisation. This is another data set of the same source.
The target is the same in assay [10]. Briefly: fluorescence polarisation. The source holds these as a separate data set.

Take {FAM}-KYYITGEAEGFPA[pT]N (peptide, UniProt P03372 581-595, looked up) [N-FAM-2 variant with C-terminal residue N]: the Kd (as a rule, the free concentration of one partner at which half of the binding sites on the other are occupied at equilibrium, for simple one-to-one binding) in assay [1] amounted to 59.5 µM; in [2], 32.4 µM.
Consider {FAM}-KYYITGEAEGFPA[pT]T (peptide, UniProt P03372 581-595, looked up) [N-FAM-2 variant with C-terminal residue T], for which the Kd in assay [1] was found to be 50 µM; in [2], 1.32 µM.
For {FAM}-KYYITGEAEGFPA[pT]A (peptide, UniProt P03372 581-595, looked up) [N-FAM-2 variant with C-terminal residue A], the Kd in assay [1] was determined as 19.9 µM; in [2] it was 0.7 µM.
As for {FAM}-KYYITGEAEGFPA[pT]L (peptide, UniProt P03372 581-595, looked up) [N-FAM-2 variant with C-terminal residue L], the Kd came to 11 µM in assay [1] and 0.17 µM in assay [2].

B1: 14-3-3σ, full-length, recombinant (natural protein)
chain: T1 sequence (looked up)
Take B1: the Kd in assay [3] is 5.34 µM; in assay [4], 538 µM; in [5] it was 0.25 µM; in assay [6], 38 µM.
{FAM}-KYYITGEAEGFPA[pT]G (peptide, UniProt P03372 581-595, looked up) [N-FAM-2 variant with C-terminal residue G]: the Kd in assay [1] stood at 144 µM; in assay [2] it was 36.5 µM.
For the molecule KYYITGEAEGFPA[pT]V (peptide, UniProt P03372 581-595, looked up) [ERα C-terminal phospholigand (ERα-ctp, 2)], the values for the Kd in assay [7] and in assay [8] were 0.75 µM and 0.02 µM, respectively.
Regarding fluorescein-ARSW[pT]F-OH [IRL9-ctp, fluorescein-labeled hexaphosphopeptide ARSWpTF-COOH], the results for the Kd in assay [9] and in [10] were 1.54 µM and 3.16 µM, respectively.
On the same counts, the results for fluorescein-YSGH[pS]L-OH [GpIBα-ctp, fluorescein-labeled hexaphosphopeptide YSGHpSL-COOH] are 1.69 µM and 22.5 µM.
For the molecule {FAM}-KYYITGEAEGFPA[pT]F (peptide, UniProt P03372 581-595, looked up) [N-FAM-2 variant with C-terminal residue F], the results for the Kd in assay [1] and in assay [2] were 10.5 µM and 4.03 µM, respectively.
As for fluorescein-ALRRQ[pT]-OH [p27Kip1-ctp, fluorescein-labeled hexaphosphopeptide ALRRQpT-COOH], the results for the Kd in assay [9] and in assay [10] were 39.9 µM and 82.2 µM, respectively.
With {FAM}-KYYITGEAEGFPA[pT]D (peptide, UniProt P03372 581-595, looked up) [N-FAM-2 variant with C-terminal residue D], the Kd turned out to be 173 µM in [1] and 48.2 µM in assay [2].
As for fluorescein-RKKR[pS]V-OH [Task3-ctp, fluorescein-labeled hexaphosphopeptide RKKRpSV-COOH], the figures for the Kd in [9] and in assay [10] were 0.1 µM and 3.15 µM, respectively.
As for fluorescein-KRSV[pS]L-OH [GPR15-ctp, fluorescein-labeled hexaphosphopeptide KRSVpSL-COOH], the Kd amounted to 1.1 µM in [9] and 7.36 µM in assay [10].
On to {FAM}-KYYITGEAEGFPA[pT]I (peptide, UniProt P03372 581-595, looked up) [N-FAM-2 variant with C-terminal residue I], for which the figures for the Kd in assay [1] and in assay [2] were 3.03 µM and 0.06 µM, respectively.
Consider {FAM}-KYYITGEAEGFPA[pT]V (peptide, UniProt P03372 581-595, looked up) [fluorescein-labeled N-FAM-ERα-ctp (N-FAM-2)], for which the Kd came to 3.61 µM in assay [1] and 0.05 µM in assay [2].
On the same counts, the results for {FAM}-KYYITGEAEGFPA[pT]S (peptide, UniProt P03372 581-595, looked up) [N-FAM-2 variant with C-terminal residue S] are 79.8 µM and 3.54 µM.
